Where two headings read alike, the source gives them in different places.
How the values were obtained:
[1] = molecular target: CdiI^NC101-His6 immunity protein, crystallography construct (E. coli NC101); assay: crystal structure
[2] = molecular target: CdiI^NC101-His6 immunity protein, crystallography construct (E. coli NC101); assay: crystal structure; remark: listed apart in the source

- stoichiometry N [1]: 2
- stoichiometry N [2]: 2
Substance: CdiI^NC101-His6 immunity protein, crystallography construct (natural protein)

Reference: PMC5737660
